Data: PMC6561018, “Structure and Properties of a Natural Competence-Associated Pilin Suggest a Unique Pilus Tip-Associated DNA Receptor” (mBio, 2019)

Tests used:
[1] = biological target: the molecule itself; experiment: SEC; HiLoad 16/600 Superdex 200 PG, 1 ml/min, 25 mM Tris-HCl pH 8.0, 200 mM NaCl, 5% glycerol; proteins incubated together at 4°C for 30 min before the run; each protein also run alone; peaks checked by SDS-PAGE
[2] = biological target: T1, ComZ (residues 31 to 554), Thermus thermophilus HB27 (Thermus thermophilus HB27, UniProt Q8KPZ1 31-554); experiment: ITC; MicroCal PEAQ-ITC; 20 aliquots of 2 μl PilA2 (314 μM) titrated into 300 μl ComZ (33 μM), 25°C; fitted assuming a single binding site; details: both partners purified
T1 construct: Cloned into pET-22b (NcoI/XhoI); also called recombinant ComZ fragment; comZ-22b construct; source: E. coli T7 Express, purified (HisTrap HP, SEC); not shown: His6, C-terminal, kept
T1 sequence (looked up): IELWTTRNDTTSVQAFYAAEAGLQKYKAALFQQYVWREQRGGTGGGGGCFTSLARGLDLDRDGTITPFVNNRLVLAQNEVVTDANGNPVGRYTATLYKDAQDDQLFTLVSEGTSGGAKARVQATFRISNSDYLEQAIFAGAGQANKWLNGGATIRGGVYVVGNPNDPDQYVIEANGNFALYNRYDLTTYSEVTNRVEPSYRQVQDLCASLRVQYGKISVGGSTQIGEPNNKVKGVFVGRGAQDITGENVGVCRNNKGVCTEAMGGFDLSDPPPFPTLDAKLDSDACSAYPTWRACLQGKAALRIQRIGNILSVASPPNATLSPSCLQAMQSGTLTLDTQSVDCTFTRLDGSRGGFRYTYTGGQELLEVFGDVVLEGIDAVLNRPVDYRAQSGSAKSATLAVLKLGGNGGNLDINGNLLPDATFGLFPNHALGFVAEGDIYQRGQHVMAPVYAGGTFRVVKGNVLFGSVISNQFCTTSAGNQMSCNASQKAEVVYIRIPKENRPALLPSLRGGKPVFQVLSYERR

Row | Binder | binding result [1] | Kd [2] [nM] | dH [2] [kcal/mol] | stoichiometry N [2]
1 | PilA3 soluble domain (residues 33 to 233), Thermus thermophilus HB27 (domain or fragment, UniProt Q72JC2 33-233, looked up, Synthetic gene (GeneArt), codon-optimised for E. coli, in pET-22b (BamHI/XhoI); source: E. coli Lemo21(DE3), purified (StrepTrap HP, SEC); not shown: Strep-tag II, C-terminal, kept) ELARNTQARSELQDRVRMVMQVVTADLQMAGARYWNSGNQNQAFSLPLPPLSGSNMGPKDTLTLYYVTSLRDLASACRRVDYGFEGDTLRRSDVNATPSSGSDCTTPPPNSQPLAEGMLALDIQYQCSDGSRKDTPDCGTDAYPRSAKVTVAGYSLTSVTNPGPASLTTVTGKTLACPQGRACYALTQEVLMPNLKPLPTP | binds | – | – | –
2 | PilA2 soluble domain (residues 33 to 193), Thermus thermophilus HB27 (domain or fragment, UniProt Q72JC3 33-193, looked up, Synthetic gene (GeneArt), codon-optimised for E. coli, in pET-22b (BamHI/XhoI); also called recombinant PilA2; source: E. coli Lemo21(DE3), purified (StrepTrap HP, SEC); not shown: Strep-tag II, C-terminal, kept) RASAQARFATDAKAAAVQVLERRSAEVLKSEIVPALSPYKDAPLDPDNPSGNWRSFYFVDYYFSCPTRVAPSPKQRGGSVANLRPGLTCSGTETIFGIPVAWDIRGENGILGEGVVTVVVTATHPRGPKVTLGRRVTCYDVYPSPTQDQPAPCPPPGGGRP | – | 690 | 2.3 | 1.1
